# In IntAct's records for PubMed 17196169:
# B1: Programmed cell death protein 6 (Homo sapiens), O75340 (parent)
# chain: MAAYSYRPGPGAGPGPAAGAALPDQSFLWNVFQRVDKDRSGVISDTELQQALSNGTWTPFNPVTVRSIISMFDRENKAGVNFSEFTGVWKYITDWQNVFRTYDRDNSGMIDKNELKQALSGFGYRLSDQFHDILIRKFDRQGRGQIAFDDFIQGCIVLQRLTDIFRRYDTDQDGWIQVSYEQYLSMVFSIV
# partner: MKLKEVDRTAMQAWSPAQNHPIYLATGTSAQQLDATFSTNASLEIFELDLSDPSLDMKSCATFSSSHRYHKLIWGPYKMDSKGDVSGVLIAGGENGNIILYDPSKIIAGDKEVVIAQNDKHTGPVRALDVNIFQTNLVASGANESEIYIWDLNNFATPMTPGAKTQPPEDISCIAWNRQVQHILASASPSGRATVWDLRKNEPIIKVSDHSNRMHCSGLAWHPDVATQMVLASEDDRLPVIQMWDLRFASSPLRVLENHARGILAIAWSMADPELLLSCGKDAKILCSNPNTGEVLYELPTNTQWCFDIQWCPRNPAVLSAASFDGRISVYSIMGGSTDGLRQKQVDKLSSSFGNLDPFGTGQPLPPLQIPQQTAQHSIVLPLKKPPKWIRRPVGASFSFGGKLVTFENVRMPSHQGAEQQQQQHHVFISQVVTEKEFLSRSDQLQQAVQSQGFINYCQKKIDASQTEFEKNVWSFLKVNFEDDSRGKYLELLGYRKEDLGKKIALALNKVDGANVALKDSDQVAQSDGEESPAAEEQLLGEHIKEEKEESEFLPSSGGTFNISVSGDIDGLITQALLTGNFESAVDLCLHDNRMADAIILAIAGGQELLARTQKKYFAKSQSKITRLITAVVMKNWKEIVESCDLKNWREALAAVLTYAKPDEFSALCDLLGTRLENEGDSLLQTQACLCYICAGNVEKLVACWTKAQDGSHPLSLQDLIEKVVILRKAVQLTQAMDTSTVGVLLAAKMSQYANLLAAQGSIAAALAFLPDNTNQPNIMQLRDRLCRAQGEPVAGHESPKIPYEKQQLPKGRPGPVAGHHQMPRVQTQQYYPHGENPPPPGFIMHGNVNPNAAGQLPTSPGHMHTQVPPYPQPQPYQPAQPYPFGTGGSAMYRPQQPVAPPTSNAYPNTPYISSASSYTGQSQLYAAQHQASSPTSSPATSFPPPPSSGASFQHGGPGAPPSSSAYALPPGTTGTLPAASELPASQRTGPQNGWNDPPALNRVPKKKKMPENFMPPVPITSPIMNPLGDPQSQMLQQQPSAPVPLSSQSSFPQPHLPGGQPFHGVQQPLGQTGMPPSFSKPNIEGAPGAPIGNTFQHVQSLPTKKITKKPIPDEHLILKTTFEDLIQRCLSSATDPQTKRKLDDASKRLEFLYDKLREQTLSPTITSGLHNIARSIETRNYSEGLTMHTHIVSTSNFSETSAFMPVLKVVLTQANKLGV
# Variants of: B1
# Details: with sc31a_human SEC31A
row,Variant,effect of a mutation on the interaction
1,E47A;E114A,decreasing interaction
